From publication PMC12143597, “The low endoribonuclease activity and lack of rNMP preference of human mitochondrial topoisomerase 1 protect against ribonucleotide-dependent deletions”

T1: scTOP1 catalytically inactive variant (Saccharomyces cerevisiae) (UniProt P04786)
T1 sequence: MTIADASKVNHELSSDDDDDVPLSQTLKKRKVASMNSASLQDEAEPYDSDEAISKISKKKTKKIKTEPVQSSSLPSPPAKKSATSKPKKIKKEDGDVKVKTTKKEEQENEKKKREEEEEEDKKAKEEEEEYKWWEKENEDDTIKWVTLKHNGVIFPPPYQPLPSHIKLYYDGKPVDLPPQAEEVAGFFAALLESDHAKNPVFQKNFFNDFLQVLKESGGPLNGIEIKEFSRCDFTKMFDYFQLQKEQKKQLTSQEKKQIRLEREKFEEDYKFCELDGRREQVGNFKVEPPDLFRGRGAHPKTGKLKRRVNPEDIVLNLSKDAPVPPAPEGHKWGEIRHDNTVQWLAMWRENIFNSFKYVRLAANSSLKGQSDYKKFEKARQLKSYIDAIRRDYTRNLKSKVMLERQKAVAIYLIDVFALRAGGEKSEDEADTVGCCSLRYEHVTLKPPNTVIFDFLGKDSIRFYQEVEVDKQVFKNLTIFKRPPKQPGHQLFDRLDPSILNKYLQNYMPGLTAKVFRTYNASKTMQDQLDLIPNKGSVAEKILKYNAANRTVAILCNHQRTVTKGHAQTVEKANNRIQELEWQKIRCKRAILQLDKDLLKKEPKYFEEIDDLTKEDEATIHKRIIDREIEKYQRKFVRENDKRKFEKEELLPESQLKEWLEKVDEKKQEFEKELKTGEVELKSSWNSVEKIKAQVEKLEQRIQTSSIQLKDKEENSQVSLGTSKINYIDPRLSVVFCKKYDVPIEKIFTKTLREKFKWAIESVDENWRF

T2: hTOP1MT catalytically inactive (Y955F) (Homo sapiens, UniProt Q969P6 =DIKLIDTVDLE+51-601, Y559F;internal_change)
T2 sequence: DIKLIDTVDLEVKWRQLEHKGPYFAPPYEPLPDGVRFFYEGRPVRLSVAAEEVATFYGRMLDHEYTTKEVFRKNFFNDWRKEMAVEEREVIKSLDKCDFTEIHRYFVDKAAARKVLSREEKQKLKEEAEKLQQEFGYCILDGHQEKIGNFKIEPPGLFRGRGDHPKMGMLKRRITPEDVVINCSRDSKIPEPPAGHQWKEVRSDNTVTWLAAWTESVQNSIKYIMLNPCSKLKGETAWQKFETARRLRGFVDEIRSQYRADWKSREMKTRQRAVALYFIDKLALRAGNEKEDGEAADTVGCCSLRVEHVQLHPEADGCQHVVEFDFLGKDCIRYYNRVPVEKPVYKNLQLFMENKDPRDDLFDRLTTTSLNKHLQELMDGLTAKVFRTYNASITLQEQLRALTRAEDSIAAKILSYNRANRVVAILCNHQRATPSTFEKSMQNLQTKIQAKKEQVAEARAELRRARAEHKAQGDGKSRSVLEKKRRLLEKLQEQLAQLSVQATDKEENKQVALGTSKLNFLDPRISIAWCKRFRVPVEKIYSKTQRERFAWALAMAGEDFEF


Experiments:
[1] = biological target: T1, scTOP1 catalytically inactive variant (Saccharomyces cerevisiae); experiment: fluorescence anisotropy; settings: 20 mM Tris pH 8, 66 mM NaCl, 1 mM DTT, 2% glycerol, 0.5 nM DNA, 0-60 nM TOP1, 10 min at 37 C, errors are SEM of 3-5 experiments
[2] = biological target: hTOP1 catalytically inactive variant (Homo sapiens, UniProt P11387 1-765, Y723F); experiment: fluorescence anisotropy; 20 mM Tris pH 8, 66 mM NaCl, 1 mM DTT, 2% glycerol, 0.5 nM DNA, 0-60 nM TOP1, 10 min at 37 C; errors are SEM of 3-5 experiments; settings: protein: recombinant; tags: N-terminal GST tag removed by 3C protease; label: 5'-FAM on strand 1; blunt
Chain of hTOP1 catalytically inactive variant (P11387 whole entry Y723F): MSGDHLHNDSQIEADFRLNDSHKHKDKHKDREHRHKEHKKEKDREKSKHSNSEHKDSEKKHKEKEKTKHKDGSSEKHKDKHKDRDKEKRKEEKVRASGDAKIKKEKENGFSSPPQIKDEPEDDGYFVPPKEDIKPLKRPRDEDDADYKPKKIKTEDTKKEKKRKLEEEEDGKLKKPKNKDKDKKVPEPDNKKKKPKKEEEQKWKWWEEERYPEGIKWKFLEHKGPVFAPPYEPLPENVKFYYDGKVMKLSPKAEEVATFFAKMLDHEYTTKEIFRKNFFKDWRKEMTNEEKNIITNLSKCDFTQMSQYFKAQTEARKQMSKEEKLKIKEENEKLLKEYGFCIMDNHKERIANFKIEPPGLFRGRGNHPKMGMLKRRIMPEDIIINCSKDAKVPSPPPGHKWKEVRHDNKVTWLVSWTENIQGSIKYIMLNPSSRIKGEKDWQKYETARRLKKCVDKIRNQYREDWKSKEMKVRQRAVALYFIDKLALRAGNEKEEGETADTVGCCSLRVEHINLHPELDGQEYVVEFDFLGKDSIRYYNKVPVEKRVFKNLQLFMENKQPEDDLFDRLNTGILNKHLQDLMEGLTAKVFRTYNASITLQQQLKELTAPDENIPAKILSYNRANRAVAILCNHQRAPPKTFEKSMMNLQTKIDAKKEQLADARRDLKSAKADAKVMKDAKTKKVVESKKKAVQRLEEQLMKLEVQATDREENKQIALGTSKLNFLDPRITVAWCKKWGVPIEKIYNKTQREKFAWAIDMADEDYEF

[3] = biological target: T2, hTOP1MT catalytically inactive (Y955F …); experiment: as above; settings: protein: recombinant; tags: GST tag removed by 3C protease; label: 5'-FAM on strand 1; blunt

Molecule | Kd [2] [nM] | Kd [3] [nM] | also measured
AGCGTTGAAGATATGTGGCAAAACCTTTGT (double strand) [Substrate A] |  |  | Kd [1]: 4.6 nM
ACTCGTCACGAGAGAGATGCCACGGTATTTCAAA (double strand) [Substrate C] |  |  | Kd [1]: 6.6 nM
ACTCGTCACGAGAGAGATGCCACGGTATTTCAAA (double strand) [Substrate D (rG upstream of cleavage site)] |  |  | Kd ([1]; single ribonucleotide rG at position 16 of strand 1, all else DNA): 6 nM
AGCGTTGAAGAUATGTGGCAAAACCTTTGT / ACAAAGGTTTTGCCACATATCTTCAACGCT [Substrate B (rU at cleavage site)] |  |  | Kd ([1]; single ribonucleotide rU at position 12 of strand 1, all else DNA): 5.5 nM
Substrate D (rG upstream of cleavage site) (dsDNA, single ribonucleotide rG at position 16 of strand 1; all else DNA) DNA 1: ACTCGTCACGAGAGAGATGCCACGGTATTTCAAA DNA 2: TTTGAAATACCGTGGCATCTCTCTCGTGACGAGT | 1.2 ± 0.09 | 4.6 ± 0.37 | 
Substrate C (dsDNA) DNA 1: ACTCGTCACGAGAGAGATGCCACGGTATTTCAAA DNA 2: TTTGAAATACCGTGGCATCTCTCTCGTGACGAGT | 1.8 ± 0.05 | 4.7 ± 0.83 | 
Substrate A (dsDNA) DNA 1: AGCGTTGAAGATATGTGGCAAAACCTTTGT DNA 2: ACAAAGGTTTTGCCACATATCTTCAACGCT | 0.97 ± 0.06 | 8.3 ± 0.59 | 
